Test results reported in patent publication US20120270297A1, “CULTURING AND GENETIC MANIPULATIONS OF THERMOTOGA SPP” (BOWLING GREEN STATE UNIVERSITY, priority 2011, published 2012).
Where two headings read alike, the source gives them in different places.

Assays:
[1] = crude yeast extract, 37° C., cited from earlier work
T. maritima = assay: Selective levels of kanamycin in liquid and solid SVO media; assay type: cell-based, Thermotoga maritima; settings: liquid SVO
Description: (§1) One ml of overnight culture was mixed with 25 ml of hot SVO containing 0.3% GELRITE and poured to Petri dishes. Small discs of 7 mm in diameter were cut from Whatman qualitative filter paper and were placed on solidified plates. Various amount of kanamycin (50˜250 μg) was added to the paper discs. After 48 h of anaerobic incubation, sensitive strains would display inhibition zones surrounding the discs. To specify the selective levels of the antibiotic in both liquid and solid media, kanamycin ranging from 50 to 300 μg ml^−1 was supplemented, and the proliferation of bacteria was monitored for up to 72 h.
(§2) We next specified the selective levels of kanamycin in both liquid and solid media. […] However, spontaneous mutations sometimes caused the cultures to become resistant to the antibiotic, and a complete inhibition over a period of 72 h was only possible when the input amount was increased to 150 μg ml^−1. Similar phenomena were also noticed with T. sp. RQ7. On SVO plates, spontaneous mutants of T. maritima and T. sp. […] Based on these observations, for the rest of the study, kanamycin was added at 150 μg ml^−1 to liquid media and at 250 μg ml^−1 to soft and solid media.

T. sp. RQ7 = assay: as above; assay type: cell-based, Thermotoga sp. RQ7; settings: SVO plates, 48 h of incubation
Description: as §1, §2

pUC19 DNA [2] = assay: Restriction assay of heat-purified cell extracts containing the REase; assay type: biochemical; settings: for restriction activity retained on storage: heat-purified extract stored at 4° C.
Description: One gram of E. coli wet cells grown at 37° C., containing pJC339 or pJC340 or both, were resuspended in 3 ml lysis buffer (10 mM Tris-HCl, 10 mM MgCl2, 50 mM NaCl, 1 mM DTT, pH 8.0) and were lysed with two passages through a French press at 14,000 pounds per square inch. After centrifugation at 27 k×g for 25 min, the supernatant was transferred to a new tube and heated at 77° C. for 1 h to denature most of the host proteins, followed by another round of centrifugation at 17 k×g for 15 min. The supernatant containing purified Thermotoga proteins was stored at 4° C. Such extracts retained 100% of the restriction activity for up to 5 weeks, and ≧50% of the activity for at least 12 weeks. For expression analysis, heat-purified cell extracts were mixed with loading buffer and were subjected to sodium dodecyl sulfate-polyacrylamide gel electrophoresis (SDS-PAGE) in 15% (w/v) gels. HisDetector Western Blot Kit (Kirkegaard & Perry Laboratories, Inc., Maryland, USA) was used for colorimetric immunodetection of histidine-tagged CTN—0339 protein. For restriction assays, heat-purified cell extracts containing the REase were serially diluted in 2-fold steps with the lysis buffer and were incubated with 5 μg of substrate DNA in a reaction volume of 50 μl. After 1 h of incubation at 50° C., 65° C., or 77° C., the reaction was terminated with 5 μl of stopping buffer (50 mM EDTA, 50% (w/v) glycerol, 0.02% (w/v) bromophenol blue, pH 8.0). Digested DNA fragments were resolved on 1% (w/v) agarose gels. One unit of the REase activity is defined as the quantity required to completely digest 1 μg of pUC19 DNA in 1 h at 77° C. For modification assays, heat-purified cell extracts containing the MTase were serially diluted in 2-fold steps with the lysis buffer and were incubated with 5 μg of substrate DNA in a total volume of 50 μl. After 1 h of incubation at 77° C., the reaction mix was then incubated with 0.5 U of the REase at 77° C. for overnight. One unit of the MTase activity is defined as the quantity required to completely protect 1 μg of pUC19 DNA from the cleavage of the REase for 1 h at 77° C.
The PCR product of CTN—0339 was completely digested by heat-purified REase. Two fragments were generated and were retrieved from agarose gels. The smaller piece was directly analyzed by Sanger sequencing; the larger piece was further digested by NdeI and was inserted into pUC19 at the NdeI-SmaI sites to form pDH22. The insertion region of the constructed vector was sequenced.
To provide further evidence to the functions of the two Thermotoga proteins, we first tested the restriction activity of CTN—0339 at 50° C., 65° C., and 77° C. using pUC19 plasmid DNA prepared from strain XL1-Blue MRF′. […] (FIG. 3). […] (FIG. 3). […]

pUC19 DNA [3] = assay: Modification assay: protection of pUC19 DNA from the REase by CTN_0340 extract; assay type: biochemical; settings: 10 μl extract, 77° C. 1 h, then REase overnight at 77° C.
Description: One gram of E. coli wet cells grown at 37° C., containing pJC339 or pJC340 or both, were resuspended in 3 ml lysis buffer (10 mM Tris-HCl, 10 mM MgCl2, 50 mM NaCl, 1 mM DTT, pH 8.0) and were lysed with two passages through a French press at 14,000 pounds per square inch. After centrifugation at 27 k×g for 25 min, the supernatant was transferred to a new tube and heated at 77° C. for 1 h to denature most of the host proteins, followed by another round of centrifugation at 17 k×g for 15 min. The supernatant containing purified Thermotoga proteins was stored at 4° C. Such extracts retained 100% of the restriction activity for up to 5 weeks, and ≧50% of the activity for at least 12 weeks. For expression analysis, heat-purified cell extracts were mixed with loading buffer and were subjected to sodium dodecyl sulfate-polyacrylamide gel electrophoresis (SDS-PAGE) in 15% (w/v) gels. HisDetector Western Blot Kit (Kirkegaard & Perry Laboratories, Inc., Maryland, USA) was used for colorimetric immunodetection of histidine-tagged CTN—0339 protein. […] One unit of the REase activity is defined as the quantity required to completely digest 1 μg of pUC19 DNA in 1 h at 77° C. […] One unit of the MTase activity is defined as the quantity required to completely protect 1 μg of pUC19 DNA from the cleavage of the REase for 1 h at 77° C. […]

pUC19 = assay: Enzyme activity assay of M.TneDI prepared from DH1021 strains; assay type: biochemical
Description: Cells from 10 ml of the induced DH1021 cultures were harvested by centrifugation and were resuspended in 150 μl of lysis buffer (10 mM Tris-HCl, 10 mM MgCl2, 50 mM NaCl, 1 mM DTT, pH 8.0). Lysozyme was added to a final concentration of 0.3 mg/ml. The cell suspension was subject to 3 freeze-thaw cycles to lyse the cells. Cell lysate was then heated at 77° C. for 30 min to denature host proteins. After centrifugation at 21,130 g for 5 min, the supernatant was recovered and used as M.TneDI preparations for activity assays. Such prepared M.TneDI can be stored at −20° C. in the presence of 10% (v/v) glycerol for more than 2 months.
Plasmid pUC19 extracted from a XL1-Blue MRF′ host was used as the substrate DNA (FIG. 10). Eight micrograms of pUC19 was incubated with 10 μl of the above prepared M.TneDI for 1 h at 77° C., supplemented with 20 μg/ml of S-adenosyl-L-methionine (AdoMet). The DNA was then subjected to restriction digestions of R.TneDI or other Type II REases recognizing CGCG sequence, such as BstUI. […] Based on the growth and the enzyme activity assays, DH10212-3 was identified as the best strain for production of M.TneDI.

C[S+](CC[C@H](N)C(=O)[O-])C[C@H]1O[C@@H](n2cnc3c(N)ncnc32)[C@H](O)[C@@H]1O (stereo partly drawn) [AdoMet, S-adenosyl-L-methionine]
original AdoMet found ([1]; 6 days): ~70%
original AdoMet found ([1]; 15 days): ~25%

NC[C@H]1O[C@H](O[C@H]2[C@H](O)[C@@H](O[C@H]3O[C@H](CO)[C@@H](O)[C@H](N)[C@H]3O)[C@H](N)C[C@@H]2N)[C@H](O)[C@@H](O)[C@@H]1O [kanamycin]
kanamycin concentration that completely inhibited growth (T. maritima; at least 72 h): 50 µg/mL
kanamycin input needed for complete inhibition despite spontaneous mutations (T. maritima; over a period of 72 h): 150 µg/mL
kanamycin concentration at which spontaneous mutants rarely showed up (T. sp. RQ7): 250 µg/mL

B1: R.TneDI: Type II restriction endonuclease of T. neapolitana encoded by CTN_0339, recognizing CGCG; SEQ ID NO: 13 (protein, listed as Thermotoga neapolitana)
chain: MRKTDPLIDIFKKNKERIDILGKAWDIFYFEGRAPDVGKRRENFIVEMIRKELSHFIKSVNQAPDTERNWDIEITFQDDSTKRYSIKTTEGFSDVKIAWDGFPTKDRILTFNFQADIFYIARNKDKIILCVIDLEKLRDLQREVEKNESKLEEYYSLPSSNTNPRGFGLKSSTVKRLIELSKKEENYLEIDYKPFPVELILKAKEEYFKGWYDLIKELIEKYQQ
extract required to completely digest 1 μg of pUC19 DNA within 1 h (pUC19 DNA [2]; 65° C. or 50° C.): 2.5 μl
extract required to completely digest 1 μg of pUC19 DNA within 1 h (pUC19 DNA [2]; 77° C., relative to the amount at 65° C. or 50° C.): half of the amount
restriction activity retained on storage (pUC19 DNA [2]; at least 12 weeks): ≥ 50%
restriction activity retained on storage (pUC19 DNA [2]; up to 5 weeks): 100%

B2: M.TneDI: methyltransferase of T. neapolitana encoded by CTN_0340, modifies CGCG sequences; SEQ ID NO: 14 (protein, listed as Thermotoga neapolitana)
chain: MKRRKSTRTSSFGVKGRESHDSSPFYSRAIYSNFSLPKPSEEDLIENPLPENLLDKVIEGDAREVLKKIPDCSIHLMVTSPPYNVGKEYDEDMTLDEYLEFIEEIMKEVYRVLVWGGRACFNVANLGRKPYIPLHAYLIHLFEKIGFLIRGEIIWDKGEAVSGSSTAWGSWMSPVNPVLRDQHEYIIVMSKGDLKRRKPSDREAKSTITREEFLEFTRSVWKFPPESAKRVGHPAPFPEELPYRCIQLYTFKGDVVLDPFAGVGTTCVAAVKTGRHFVGIEINPEYVKKAEERVKDILSKPTLFEDHC
digestion of treated pUC19 DNA by the REase (pUC19 DNA [3]): only partially digested
protection of substrate DNA from R.TneDI or BstUI (pUC19; 10 μl preparation, 8 μg pUC19, 1 h at 77° C., 20 μg/ml AdoMet): prevents substrate DNA from the degradation
storage time of M.TneDI preparation (pUC19; −20° C., 10% (v/v) glycerol): more than 2 months
